Data reported in the supplement of paper PMC12764529.
± gives the half width of the 95% confidence interval.

Assay: folding stability dG unfold (combined trypsin and chymotrypsin); higher = more stable
Description: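 Folding stability of de novo designed mini-proteins (<80 aa, no Cys; designed by TrROS, TrMRF, ProteinMPNN and the joint model) was measured by cDNA display proteolysis with trypsin and chymotrypsin. Each protease was used at 11 concentrations in a threefold dilution series plus a no-protease condition. K50 was inferred by Bayesian fitting of sequencing counts, and dG unfold was derived against a sequence-predicted unfolded-state K50 (Tsuboyama et al. method). Sequences shown include variable-length N-terminal GS-type padding (SAGGSAGG...) inside a display construct carrying a PA tag. Rows were kept only if the AF2 dimer inter-PAE was >15, to exclude likely homo-oligomers.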

Compared with “SAGGSAGGSAGGMPPEETVTVTIVESKPVPDPEGNPVEPLPVKTTTITVPASNPEALAAKSAGGSAGGSAGG [r7_439_JUSTAS]”, “SAGKTVKVTVEKEVTLENGNKVTVKVEKTVELKPPPPKKITLSPEEIEEIDKETGEIRNKKTNKVFKIKSAG [r5_807_TrROS_Hall]” is lower in “folding stability dG unfold” value: -0.487 ± 0.21 kcal/mol for the first, < -1 kcal/mol for the second.

First: SAGGMAEELAKLLKELFPDEEVEVEVKVEEKEVNGKKYLTITVTVRNKKTGKKIKEIKLVIELPEEESAGGS [r8_207_TrROS_Hall]
Second: SAGGSAARVVEEIPGVGLLIAKPPTSDEPEIVLSLAELEEARRRSGVPPELAALIAANPDLTLELVSAGGSA [r15_359_JUSTAS]
The “folding stability dG unfold” value of the first is higher: > 6 kcal/mol for the first, < -1 kcal/mol for the second.

Compared with “SAGGSAGGSGYSVSVSEDFSSSPETRTVTTTTTSPSSGPLVTTTTTTTSPIPPRTPAEVAAAASAGGSAGGS [r12_841_JUSTAS]”, “SAGGSAGGSAGGSGGVTVSQYEGGKATRTVTSFDPVNNSTSTTTTTTFTIPPDEPVTVSSAGGSAGGSAGGS [r10_1153_JUSTAS]” is lower in “folding stability dG unfold” value: 0.327 ± 0.048 kcal/mol for the first, -0.371 ± 0.29 kcal/mol for the second.

“SAGGMESPVKAVDPSTGAERSFTIPREEAEALLAAGETTIEIPYSGGPMTVEITPLPDGTYAITGKAPSAGG [r13_171_JUSTAS]” and “SPEFKIAEVRVEAFPDGTVKAEVRFEGGTETAVFDAPVDPETGVVPVRARIYNPETGEVSEFTATGRIGASA [r9_825_TrMRF]” are within error of each other in “folding stability dG unfold” value: -0.16 ± 0.14 kcal/mol for the first, -0.325 ± 0.17 kcal/mol for the second.

Compared with “SAGGSAGGSMTVTLSYPDGSTVTRPLEGKSLEEAIAALPEDVTEVQVTVLEGSTPVTRTVPRPSAGGSAGGS [r12_767_JUSTAS]”, “SAGGSAGGSAGGSPFEGPRPVVVKPVSPEILAKTPPEEVKKRLKEELPESVTIVETNPLPSAGGSAGGSAGG [r7_487_JUSTAS]” is lower in “folding stability dG unfold” value: 0.344 ± 0.054 kcal/mol for the first, < -1 kcal/mol for the second.

First: SAGGMTVTIESVERLPGGVEVRRMVIETLDPNNPTPSTVERELVTEFTPSVDPEGRPGRLARREEVLGSAGG [r13_612_JUSTAS]
Second: SAGGSAGGSMTPVHVYVPPSLSPEEARARVRAELRAALPAAEADVPLEDVEVVLRPLPPDVPLSAGGSAGGS [r12_384_JUSTAS]
The “folding stability dG unfold” value of the first is higher: -0.237 ± 0.15 kcal/mol for the first, < -1 kcal/mol for the second.

Compared with “SAGGSAGGSAGIIEFPFPLNEAKKLAENLPPGFRPVNVEPDPDNDRIWVIIQVVPPKKGKSAGGSAGGSAGG [r17_98_TrROS]”, “SAGESTLELTETSFPDGTTARVTTTRYPGLVRREATVTLPDGTVERLSAEVTLDEDEEVVTTSRSPLPSAGG [r19_385_JUSTAS]” is higher in “folding stability dG unfold” value: < -1 kcal/mol for the first, -0.666 ± 0.45 kcal/mol for the second.

Compared with “SAGGSAGGSAITIKELAKEGYTIEIRPPDGKKETFKPGDSVDDPAEEFDLPPNWRIEIRPPSAGGSAGGSAG [r3_216_TrROS]”, “SAGGSAENLVRTTRTTEALPDGGTRTTTTTTLPGGLTVVTRPYYDPATGTTATTTTTLAPDETVTDSAGGSA [r15_917_JUSTAS]” is higher in “folding stability dG unfold” value: < -1 kcal/mol for the first, -0.0377 ± 0.16 kcal/mol for the second.

First: SAMPITVTVKKTVTLPPPGPEHQKLLDPNGTVRTVTVEETETITVSPEEIEKVKEEAEAKGIEEVTVVDSAG [r14_509_JUSTAS]
Second: KDFGITFKSPETIEEIAKKLGPNVVPTDIKKDPKGYVYAKIPTPDGKETDIVIPADKYSYEEAVKFAKEAES [r1_279_TrMRF]
The “folding stability dG unfold” value of the first is higher: 0.267 ± 0.15 kcal/mol for the first, -0.232 ± 0.13 kcal/mol for the second.

Compared with “SAGDKYRIKMTNPNGKKIEFEIPPNGYIKVRIRNPNNEHEMTIPIPPGETIEEALDNFPPYKISEIEPVSAG [r5_259_TrROS]”, “SAGGSIPAEELAAALAALPELPAAEVEVVVEERPDEVVVDVRFADPEHPRHVALLRRAERLLAEAASAGGSA [r2_3_TrMRF]” is lower in “folding stability dG unfold” value: 0.328 ± 0.082 kcal/mol for the first, -0.305 ± 0.22 kcal/mol for the second.

First: SAGGSAMVIDSKEVLEDDVLVTTTAITVDPSTGIKTEDVEEKPVPLPDGTPLPPRKTTRTTPLANASAGGSA [r15_623_JUSTAS]
Second: SAGGSAGGSAGDNGPLVIEVDISPDALADAVKNNKPLNANVRIYRPDGSPGGVFDLLIPASAGGSAGGSAGG [r11_26_TrMRF]
The “folding stability dG unfold” value of the first is higher: 0.175 ± 0.13 kcal/mol for the first, -0.126 ± 0.12 kcal/mol for the second.

Compared with “SAGGMKLTLTFTETSVLPDGTPVTTTSTTPLSPDVPVEEVAAALAETNPDVTVTVHEPSTGSTRTLRTSAGG [r13_663_JUSTAS]”, “SAGGSAGGPMKPVEYEIPLPGRPITIEVNPPYGYIDIEWPPNGKERTVPMSPGQSAEDILKELFSAGGSAGG [r6_166_TrROS]” is lower in “folding stability dG unfold” value: -0.351 ± 0.14 kcal/mol for the first, < -1 kcal/mol for the second.

Compared with “SAGGSAGGSAGGSGPEELAAAARAAHPELGAPVRVEVTYTPEAGEFPVRVFLPEDGAALSAGGSAGGSAGGS [r4_312_JUSTAS]”, “SAGGSAGGSAGGTLIKTSDDTIVIPIGDPEEAEKAAEEIKAKLGDVDLKVEILSPEELRGSAGGSAGGSAGG [r7_645_JUSTAS]” is higher in “folding stability dG unfold” value: < -1 kcal/mol for the first, 0.13 ± 0.14 kcal/mol for the second.

First: SAGGSALTAKEARELVRNYAREHNPDYKVKGIEVERLPDKWVHADIEVRPPENPGQEHEWSIWIPYSAGGSA [r15_627_TrROS]
Second: SAGTKTIMGRPDDLPEAIEEALDKGPDLKKVKIYWGGREREIPLGDKIKITEPMPNPNGPPFMMIEIEDSAG [r5_130_TrROS]
The “folding stability dG unfold” value of the first is higher: -0.986 ± 0.31 kcal/mol for the first, < -1 kcal/mol for the second.

Compared with “SAGGSAGGSPAIRVERDPETDVLLAEIGHPDGVPALARISPATGTVTVLEGGKLVEVPLPEIGSAGGSAGGS [r12_650_TrMRF]”, “SAGGGNPPVLKIELTKTYHPPDGTKVELYRVEHPVEPREIYIVKTYPDDGAEEVKIVKEEELKEALKSAGGS [r8_421_JUSTAS]” is lower in “folding stability dG unfold” value: 0.113 ± 0.13 kcal/mol for the first, < -1 kcal/mol for the second.

Compared with “SAGGSAGGSAGGTKELAEALRDAGYEVEYDKATNKIEVRPKPKPKPVVKTVTFVPKEDLSAGGSAGGSAGGS [r10_1173_TrROS_Hall]”, “SAGGPPDKSVTVTVTDEKGNPITYPVTASKPVPVYLDDPEKKLEFTVPPDSDFTAPVPPGRVSVDLRSAGGS [r16_456_JUSTAS]” is higher in “folding stability dG unfold” value: -0.51 ± 0.36 kcal/mol for the first, 0.202 ± 0.12 kcal/mol for the second.

First: SAGGSSPPTTTRTFAHPDGRTTELTVPTLPDGTPVVTTTTGGTTTTLSLSQLEKLPSSWTFTSTSSSAGGSA [r2_431_JUSTAS]
Second: SAGGPNPKTVEIPSPGTPEDVRARVEELAAELRPRGRPVTVTVTVGSTPRTLALAEVASVPPDATATVGSAG [r5_626_JUSTAS]
The “folding stability dG unfold” value of the first is higher: -0.971 ± 0.64 kcal/mol for the first, < -1 kcal/mol for the second.

Compared with “SAGPLVITVEETDGTVTITIYDAETGEKIAEFTFPKGAEVTIEDGYITIRNKETGETFVFKLPDGVKPSAGG [r19_4_TrROS_Hall]”, “SAGGSAGGSAGGMVPGETVTITIPVPPTGKEVPVEISTTLPPEEREALAEAKAAELEAALSAGGSAGGSAGG [r7_957_JUSTAS]” is lower in “folding stability dG unfold” value: > 6 kcal/mol for the first, -0.199 ± 0.11 kcal/mol for the second.

First: SAEKVTLTITVKMTEEELKEIAEKVGMKVEITVEKEEDGLYRVTLTFETPEEAEKAREALEKAGYKVEPSAG [r14_745_TrROS_Hall]
Second: SAGGSAGGSAGGEPEPIPIKVKIYNPEDGKKREVDFWIPYGNIKEVLKELMPKGYKVEIESAGGSAGGSAGG [r7_230_TrROS]
The “folding stability dG unfold” value of the first is higher: 4.6 ± 0.16 kcal/mol for the first, -0.506 ± 0.33 kcal/mol for the second.

“SAGGSAGGSAGGMPVSVETKLIEKDPVEDVEISLETFPGTDLRVIVTKTKNEVKKTVIPKSAGGSAGGSAGG [r17_370_JUSTAS]” and “SAGGSAGGSAKNTASLKKDDGFVAYNPKTGKYVAEVEVVKDDKDNIDLPLPNGDEVEIDAVGSAGGSAGGSA [r18_363_TrMRF]” are within error of each other in “folding stability dG unfold” value: -0.719 ± 0.51 kcal/mol for the first, -0.846 ± 0.44 kcal/mol for the second.

Going from “SAGGSAGGSPPVIHPMTVTTLAYDPATGVVDVLVDDKGKDPAVREAAEAAARAAGHPVEVVPRSAGGSAGGS [r20_157_JUSTAS]” to “SAGGSAGGSAGGGSMILNVRTVVEEDFPINDRRKVTVLDPVVLVPAVAFDPSTGKATPVSAGGSAGGSAGGS [r10_815_JUSTAS]”, the “folding stability dG unfold” value rises from < -1 kcal/mol to 0.298 ± 0.083 kcal/mol.

First: SAGGSAGGSAAVVVNATPDDGFTIYDPATGERLADAEVTKTNGDSLNLPHPDGRAVAVDPRKSAGGSAGGSA [r18_363_JUSTAS]
Second: SAGGSMLTVDYTVSPDVDLEEALAAVAEEVRAALLAETGGPVAVDVRPVSRPPDGTVRIRVDVALESAGGSA [r2_214_JUSTAS]
The “folding stability dG unfold” value of the first is lower: -0.373 ± 0.47 kcal/mol for the first, 0.525 ± 0.12 kcal/mol for the second.

Compared with “SAGGGTVVDPGPRVVTITVRPPDGKPRTITLPLPDATPEEIRARLEAVAAALPEAGATVDVLDIRPLPSAGG [r13_29_JUSTAS]”, “SAGGLSVSSVSTGSDKITVTVTGSGSPVATVEIPPGLPNTEVTATVLPDGSVRVELKTGNTPRTIEVPLSAG [r5_533_JUSTAS]” is lower in “folding stability dG unfold” value: 0.397 ± 0.064 kcal/mol for the first, -0.783 ± 0.28 kcal/mol for the second.

With “SAGGSAGGSAGGSSVSVSFDPATGTRTVTYTTLDPSNGKILSSTTSTTAVALAATPAAASAGGSAGGSAGGS [r10_842_JUSTAS]” the “folding stability dG unfold” value was -0.288 ± 0.17 kcal/mol.
